The record followed here is patent US11504374B2, “Compositions and methods for the treatment of a beta-catenin-associated disease or disorder” (Dicerna Pharmaceuticals, Inc., priority 2016, dated 2022).

One data set relates to Ls174t liver metastases. The data set can be described thus: Survival in Ls174t CRC liver metastases model. Conditions: for mice that died around day 48: 2 mg/kg or 2+2 mg/kg, start 3 weeks after implantation; for median survival: single agent 2 mg/kg, start 3 weeks after implantation of 2×10^6 cells. The class given is in vivo, nude mice. The procedure: (§1) Colorectal cancer (CRC) liver metastases models were generated by surgically implanting 1-2×10^6 cells in the spleen of nude mice after midline abdominal incision. After surgery, the abdominal incision was closed with 5-0 to 6-0 absorbable, nonbraided suture and the skin was closed with a single wound clip. Mice were anesthetized with isoflurane before initiating the surgery and during surgery. Buprenorphine was given preoperatively and post-operatively at 0.1 mg/kg subcutaneously for pain relief. Mice were held in a pathogen-free environment and all procedures involving animals were performed according to protocols approved by Dicerna Pharmaceuticals' Institutional Animal Care and Use Committee (Dicerna-IACUC).
We developed multiple CRC liver metastatic models by surgically implanting Ls174t and LS411N cells in spleen.
Before we evaluated the combination strategies in these CRC metastatic models, we ran a single agent Trametinib efficacy in the Ls174t liver metastatic model. Fewer number of Ls174t cells (1×10^6 cells) were implanted in the spleen this model to reduce the aggressiveness of the tumor progression. 18 days after the implantation, mice were randomly distributed into 3 groups and treated with PBS, Trametinib at 1 mg/kg or Trametinib at 3 mg/kg dose levels (qdx3, 3 cycles).
Next we ran a combination efficacy study in mice bearing Ls714t liver metastasis based on the doses used in the single agent efficacy studies. This time, the treatment was initiated 3 weeks after tumor implantation of 2×10^6 Ls174t cells. BCAT1, Placebo, and Trametinib were dosed at 2 mg/kg and the combination groups (Placebo+Trametinib or BCAT1+Trametinib) were dosed at 2+2 mg/kg.

The test system of the next data set is LS411N tumors. The data set can be described thus: Tumor growth inhibition, subcutaneous LS411N colorectal tumors in nude mice. Conditions: for growth inhibition: single agent, 0.1 mg/kg; for tumor growth inhibition: 2 cycles. Format: in vivo. The procedure:
(§2) 6-8 week old Hsd:Athymic Nude-Foxn1^nu mice (hereby referred to as nude mice) were injected subcutaneously with LS411N (5×10^6 cells), SW403 (5×10^6 cells), Ls174t (5×10^6 cells) or Hep3B (5×10^6 cells+matrigel) under the right shoulder. Tumor volume was measured twice a week to monitor tumor growth/suppression. Dosing was initiated when the tumors reached 200-250 mm^3. For tumor growth inhibition studies, animals were randomized and assigned to different cohorts and subjected to dosing cycles. BCAT1 or LNP was given intravenously via lateral tail vein at a total volume of 10 ml/kg. Trametinib was given orally at a volume of 10 mi/kg.
(§3) Human cell lines LS411N and SW403, Ls174t and Hep3B were obtained from ATCC (Manassas, Va.) and grown in RPMI/DMEM medium supplemented with 10% FBS. LS411N is a human colorectal cell line harboring mutations in the adenomatous polyposis coli (APC) and BRAF genes. APC is a component of the destruction complex in the Wnt signaling pathway. SW403 is a human colorectal cell line harboring mutations in the APC and KRAS genes. LS174t is a human colorectal cell line harboring mutations in the CTNNB1 and KRAS genes.
The single agent efficacy of BCAT1 was evaluated at different dose levels in different colorectal cancer models. […] FIG. 2A. […] FIG. 2C. […] Without intending to be bound by any theory, it appears that the Wnt pathway may be reactivated when treatment is stopped.
We then evaluated the single agent Trametinib in LS411N tumor bearing mice at different dose levels (3, 1 and 0.3 mg/kg) and selected […] as the dose to be used in the combination study. FIG. 5A. For BCAT1, a dose of 0.1 mg/kg was selected from the previous single agent efficacy studies to be used in combination with Trametinib to treat LS411N tumors. […] FIG. 5B.

In another data set the test system is SW403 tumors. The data set can be described thus: Tumor growth inhibition, subcutaneous SW403 colorectal tumors in nude mice. The class given is in vivo. Conditions: for tumor growth inhibition: each agent alone, 0.3 mg/kg. The procedure:
as §2, §3
The combination treatment was also evaluated in a third CRC model (SW403) that has APC and KRAS mutations. As described for the other two models, we first checked the single agent Trametinib efficacy at different dose levels in these tumors and picked 0.3 mg/kg as the optimal dose for the combination study (FIG. 5C). BCAT1 was administered at the same dose (0.3 mg/kg) and used in combination with Trametinib.
In these CRC models, tumors generally develop resistance to Trametinib over time. To investigate this resistance, SW403 tumors were continuously treated with Trametinib at 3 mg/kg doses (qdx3, 3 mg/kg×3) until the tumors stopped responding to the treatment. Once the tumors stopped responding and became resistant to Trametinib treatment, we treated the tumors with a combination of BCAT1 and Trametinib (qdx3, 3mpk+ qdx3, 3mpk) (around Day 42). […]

The test system of another data set is Hep3B tumors. In words: Tumor growth inhibition, mouse model bearing Hep3B tumors. Conditions: administered individually at 2 mg/kg. Format: in vivo. On the procedure: as §2
Combination therapy with BCAT1 and a nucleic acid inhibitor molecule that targets the c-Myc gene (“MYC1”) was also evaluated. MYC1 has a 25 base pair passenger strand and a 27 base pair guide strand that form a duplex region consisting of 25 base pairs, where the 3′ end of the passenger strand and 5′ end of the guide strand form a blunt end, and the 3′ end of the guide strand consists of a single-stranded, two-base overhang. FIG. 9. The MYC1 construct was formulated in EnCore LNP.

The next data set has as its system LS174t tumors. In words: Tumor growth inhibition, subcutaneous Ls174t colorectal tumors in nude mice. The class given is in vivo. Conditions: qdx3, 3 mg/kg, 2 cycles. The procedure: as §2, §3
Combination therapy with BCAT1 and an MEK inhibitor (trametinib) was evaluated. Trametinib (99% purity) was dissolved in DMSO to make a clear solution of 5 mg/ml. […]

The test system of a further data set is LS411N liver metastases. The data set can be described thus: Survival in LS411N CRC liver metastases model. Conditions: qdx3, 3 mg/kg, 3 weeks. Format: in vivo, nude mice. The procedure: as §1
We developed multiple CRC liver metastatic models by surgically implanting Ls174t and LS411N cells in spleen. 2-5 weeks after implanting 2×10^6 cells, the primary Ls174t tumors grown in the spleen spontaneously metastasized to the liver. To see if BCAT1 monotherapy will treat both primary and metastatic tumors and improve survival, 2 weeks after the tumor implantation, mice bearing Ls174t tumors were treated with BCAT1 or placebo at 3 mg/kg doses (qdx3, 3 mg/kg, 3 cycles). […] The […] survival time (“MST”) of the control-treated group is 31 days, whereas the MST of the BCAT1-treated group is 46 days).
Similarly, the mice with LS411N liver metastases were also treated with BCAT1 or controls (placebo or PBS) at the same dose levels for 3 weeks. Unlike the Ls174t tumors, LS411N tumors took a much longer time to metastasize to the liver after implanting 2×10^6 cells in the spleen. The treatment was initiated 18 days after the implantation of LS411N cells in the spleen. It took 112 days for all the control treated mice to die. […] It took about 6 months for all of the BCAT1-treated mice to die. In summary, BCAT treatment extended the survival of mice bearing LS411N liver metastasis by up to two-fold compared to the control treatment groups (MST of PBS/Placebo treatment groups is 99-102 days, whereas the MST of the BCAT1-treated group is 181 days).

A further data set concerns RKO tumors. In words: Tumor growth inhibition, β-catenin/APC wild type RKO colorectal tumors. Format: in vivo. Conditions: qdx3, 3 mg/kg, 2 cycles.
Data set [1] relates to multiple tumor types (xenograft, PDX, GEM tumors). The data set can be described thus: Delivery of LNP formulated BCAT1 nucleic acid payload to tumors in mouse models. Format: in vivo. The text has this: The BCAT1 construct was formulated in EnCore lipid nanoparticles (LNP).
Setting [2] is: start 18 days after implantation.

With `CC(=O)Nc1cccc(-n2c(=O)n(C3CC3)c(=O)c3c(Nc4ccc(I)cc4F)n(C)c(=O)c(C)c32)c1` [Trametinib, trametinib], the “mean survival time (MST)” value in the data set on Ls174t liver metastases (1 mg/kg, qdx3, 3 cycles, 1×10^6 cells, start 18 days after implantation) is given as 47 days; in the data set on Ls174t liver metastases (3 mg/kg, qdx3, 3 cycles, 1×10^6 cells, start 18 days after implantation) it was 65 days. Moreover, the “mice that died around day 48” value in the data set on Ls174t liver metastases turned out to be 90%. Besides, the median survival in the data set on Ls174t liver metastases (qdx3, 3 cycles) came out at 44 days. Further, in the data set on LS411N tumors, the growth inhibition result is reported as “about 20%”. Also, the tumor growth inhibition in the data set with SW403 tumors was 40%.

In the case of “MYC1: nucleic acid inhibitor molecule targeting the c-Myc gene; sense strand SEQ ID NO:5, antisense strand SEQ ID NO:6 (sense AGCUUUUUUGCCCUGCGUGACCAGA; antisense UCUGGUCACGCAGGGCAAAAAAGCUCC; listed as RNA, chemistry not given here)”, the growth inhibition with Hep3B tumors is 40%.

B1: BCAT1: nucleic acid inhibitor molecule targeting the β-catenin gene; sense strand SEQ ID NO:1, antisense strand SEQ ID NO:2 (nucleic acid)
sense: AGAAUACAAAUGAUGUAGAAACAGCC
antisense: UAGCUAUCGTGGCUGUUUCUACAUCAUUUGUAUUCUGC
modifications: chemistry not given here
Consider B1, for which the “mice that died around day 48” value with Ls174t liver metastases worked out at 90%. Moreover, the “mean survival time (MST)” value is on record as 46 days with Ls174t liver metastases (qdx3, 3 mg/kg, 3 cycles, start 2 weeks after implantation of 2×10^6 cells) and 181 days with LS411N liver metastases (setting [2]). Besides, in the data set with Ls174t liver metastases (qdx3, 3 cycles), the median survival is on record as 45 days. The anti-tumor efficacy result in the data set on LS174t tumors is recorded as “Robust efficacy”; with RKO tumors, “No efficacy”; in the data set on SW403 tumors (qdx3, 3 mg/kg, 2 cycles), “Robust efficacy”. The “tumor growth after therapy discontinued” value in the data set with LS411N tumors (qdX3, 3 mg/kg, discontinued after the second cycle) was “tumor growth resumed to a level roughly comparable to untreated subjects”. In addition, the tumor growth inhibition is recorded as 47% in the data set with LS411N tumors (qdx3, 0.3 mg/kg); 60% in the data set on LS411N tumors (qwx1, 3 mg/kg, weekly dosing); 20% in the data set with SW403 tumors. Also, in the data set on LS411N tumors (qdx3, 1 mg/kg, two weekly dosing cycles, i.v.), the “tumor growth inhibition relative to vehicle-treated animals” value is reported as 82%. The growth inhibition result with LS411N tumors is “about 20%”; in the data set on Hep3B tumors, 47%. Besides, in the data set on LS411N liver metastases, the “extension of survival compared to control treatment groups” value was “up to two-fold”. Besides, the “time for all treated mice to die” value in the data set on LS411N liver metastases was “about 6 months”. In addition, the “mice surviving at 112 days post-implant” value with LS411N liver metastases (setting [2]) amounted to 75%. For the same molecule, the “delivery of BCAT1 to tumors” value in data set [1] (HCT116, DLD1, HL60) is on record as “Negative: HCT116, DLD1, HL60”. The “delivery of the nucleic acid payload to tumors” value in data set [1] (LNP formulated, tumor types of Table I (subcutaneous, orthotopic, disseminated, metastatic xenografts, PDX, GEM)) was “effectively delivered”.
